Results as given in patent US20240190937A1, “HUMAN INSULIN C-ALPHA-PEPTIDES AND METHODS OF USE” (The United States of America, as represented by the …, priority 2021, published 2024).

Columns and labels:
IAPP = target: T1, IAPP (Homo sapiens, UniProt P10997); experiment: IAPP aggregation assay (Thioflavin T fluorescence); assay type: biochemical; conditions: 50 mmol/L IAPP plus 50 mmol/L peptide; 37° C.; range of 90-130 min; three replicates
T1 construct: IAPP (37 AA) (catalog number LT110006) (amidated C-terminal and disulfide bridge between Cys2 and Cys7) was from LifeTein; purchased LifeTein (Hillsborough, NJ) LT110006
T1 sequence (P10997 34-70 limits assumed): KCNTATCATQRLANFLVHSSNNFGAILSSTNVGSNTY
Excerpt: Thioflavin T (ThT) was from MilliporeSigma (catalog number T3516; Rockville, MD). IAPP (37 AA) (catalog number LT110006) (amidated C-terminal and disulfide bridge between Cys2 and Cys7) was from LifeTein (Hillsborough, NJ), and C-peptide (catalog number AS-61127) was from AnaSpec (Fremont, CA). Cα-peptide was custom made (Genemed Synthesis, Inc., San Antonio, TX). Black 96-well microplates (chimney well) were from Greiner Bio-One (Frickenhausen, Germany). Soluble and monomeric IAPP was made according to published protocols (Stine et al., Methods Mol. Biol. 670:13-32, 2011; Tu et al., Biochemistry 54:666-676, 2015), and the AnaSpec Manual of SensoLyte Thioflavin T Aggregation Kit (catalog number AS-72214) was used for the IAPP aggregation assay, with final concentration of 1% DMSO and […] ThT in component A buffer. The buffer was used as blank and IAPP without inhibitors, and the final concentration of IAPP and C- and Cα-peptides was […] each in the inhibition assays. Amyloid kinetics were measured by increasing ThT fluorescent amyloid binding intensity (1ex 440 nm; 1em 485 nm; height 3 mm; flashes 12) for 36 cycles, 5 min per cycle, at 37° C. with 15 s of shaking (100 rpm) between the reads in the EnSpire Multimode Plate Reader (PerkinElmer, Inc., Waltham, MA).

β-Amyloid (1-42) = β-Amyloid (1-42) (Homo sapiens, UniProt P05067); experiment: β-Amyloid (1-42) fibrillation assay (ThT binding to amyloid); assay type: biochemical; conditions: 50 μM β-Amyloid plus 50 μM peptide; time range of 60-240 min; three replicates
Sequence of β-Amyloid (1-42) (P05067 672-713 limits assumed): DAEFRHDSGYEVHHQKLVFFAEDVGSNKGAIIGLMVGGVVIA
Description: FIGS. 21A-21C show inhibition of β-Amyloid (1-42) fibrillation by C- (C-pep) and Cα-peptides (Cα-pep). […] FIG. 21B is a box-whisker plot on C- and Cα-pep inhibition of β-Amyloid fibrillation in time range of 60-240 min. […] Fluorescence intensity (F.I.) represents ThT binding to amyloid. AUC represents area under curve calculated by Trapezoid rule. Aβ(1-42) represents 50 μM β-Amyloid plus buffer, C-pep represents 50 μM β-Amyloid plus 50 μM C-pep, and Cα-pep represents 50 μM β-Amyloid plus 50 μM Cα-pep.
Thioflavin T (ThT) was from MilliporeSigma (catalog number T3516; Rockville, MD). IAPP (37 AA) (catalog number LT110006) (amidated C-terminal and disulfide bridge between Cys2 and Cys7) was from LifeTein (Hillsborough, NJ), and C-peptide (catalog number AS-61127) was from AnaSpec (Fremont, CA). Cα-peptide was custom made (Genemed Synthesis, Inc., San Antonio, TX). Black 96-well microplates (chimney well) were from Greiner Bio-One (Frickenhausen, Germany). […] Amyloid kinetics were measured by increasing ThT fluorescent amyloid binding intensity (1ex 440 nm; 1em 485 nm; height 3 mm; flashes 12) for 36 cycles, 5 min per cycle, at 37° C. with 15 s of shaking (100 rpm) between the reads in the EnSpire Multimode Plate Reader (PerkinElmer, Inc., Waltham, MA).

| Substance | inhibition of IAPP fibrillation (ThT fluorescence intensity, AUC) (IAPP) | inhibition of β-Amyloid fibrillation (ThT fluorescence intensity, AUC) (β-Amyloid (1-42)) |
| --- | --- | --- |
| C-peptide: classical 31-AA human insulin C-peptide, AnaSpec catalog number AS-61127 (EAEDLQVGQVELGGGPGAGSLQPLALEGSLQ) | inhibition of IAPP fibrillation | not |
| EAEDLQGSLQPLALEGSLQ (C-alpha peptide; listed as Homo sapiens) [Cα-peptide, human 19-AA insulin C-peptide variant encoded by INS3B isoform; custom made by Genemed Synthesis] | inhibited IAPP fibrillation more efficiently than C-peptide | inhibits |
